Measurements as given in patent US8865648B2, “Monomeric and dimeric forms of adiponectin receptor fragments and methods of use” (Siemens Healthcare Diagnostics Inc., priority 2009, dated 2014).
Bridge positions count the residues as written; N and C are the ends. Ends that are not written are not given here. I, II: the chains in the order shown.

What was measured:
[1] = target: insulin degradation enzyme (IDE) (Homo sapiens, UniProt P14735); experiment: Inhibition of enzymes: insulin degradation enzyme (IDE) inhibition; type: biochemical; conditions: for IDE Inhibition (90% inhibition at): IDE at level of 400 ng/ml, peptide level giving 90% inhibition
Method: (§1) Inhibition of insulin degradation enzyme (IDE) is a biological function of CTF. The inhibition reduces insulin degradation in the liver and other tissues and thereby increases insulin levels in the blood. The enzymes for cleavage of the dimers are also potential therapeutic targets. Each of the peptides synthesized in Example 1 was tested for their effect on cleavage and target enzymes (ADAM-17 and IDE at level of 400 ng/ml).

ADAM-17 = ADAM-17 (Homo sapiens, UniProt P78536); experiment: Inhibition of enzymes: ADAM-17 inhibition; type: biochemical; conditions: ADAM-17 at level of 400 ng/ml
Method: as §1

[2] = when administered to patients; cited from earlier work

ADAM-17, sequence (P78536 215-824): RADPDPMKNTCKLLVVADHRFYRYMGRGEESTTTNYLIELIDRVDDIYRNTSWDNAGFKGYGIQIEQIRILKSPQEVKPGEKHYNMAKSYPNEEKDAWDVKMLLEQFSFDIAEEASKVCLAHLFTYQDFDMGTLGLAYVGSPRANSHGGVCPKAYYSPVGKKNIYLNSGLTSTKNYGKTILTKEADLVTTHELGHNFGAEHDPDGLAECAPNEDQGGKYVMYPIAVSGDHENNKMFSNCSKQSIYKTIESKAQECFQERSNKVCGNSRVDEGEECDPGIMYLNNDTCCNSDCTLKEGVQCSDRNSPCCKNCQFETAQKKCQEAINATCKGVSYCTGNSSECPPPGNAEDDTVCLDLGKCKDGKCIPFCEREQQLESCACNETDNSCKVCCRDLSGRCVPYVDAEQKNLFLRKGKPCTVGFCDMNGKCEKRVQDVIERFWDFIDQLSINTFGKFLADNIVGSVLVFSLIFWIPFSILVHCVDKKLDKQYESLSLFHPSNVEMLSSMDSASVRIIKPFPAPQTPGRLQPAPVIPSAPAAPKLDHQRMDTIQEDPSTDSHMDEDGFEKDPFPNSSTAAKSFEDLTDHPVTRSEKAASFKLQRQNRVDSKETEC

Molecule | IDE Inhibition (90% inhibition at) [1] | ADAM-17 Inhibition (observed) (ADAM-17) | insulin-sensitizing effect [2] | activity of heterodimer compared with corresponding homodimers ([1]; comparison drawn from the data in TABLE 2)
GGCSEEDAL [R2 CTF9] | Negative | Negative |  | 
GGCTDDTLL [R1 CTF9] | negative | Negative |  | 
HFHGVSNLQEFRFMIGGGCSEEDAL [R2 CTF25] |  | Negative |  | 
HFYGVSNLQEFRYGLEGGCTDDTLL [R1 CTF25] |  | Negative |  | 
HVLVVAAAFVHFYGVSNLQEFRYGLEGGCT [R1 CTF30] | Negative | Negative |  | 
LQEFRYGLEGGCTDDTLL [R1 CTF17] | negative | Negative |  | 
R1 CTF25 R2 CTF25: SEQ ID NO:5 linked via a disulfide bond to SEQ ID NO:6 (chain 1 HFYGVSNLQEFRYGLEGGCTDDTLL; chain 2 HFHGVSNLQEFRFMIGGGCSEEDAL; disulfide I:19-II:19 (inferred)) |  | Negative |  | 
VVAAAFVHFYGVSNLQEFRYGLEGGCTDDTLL [R1 CTF32, C-terminal fragment of ADIPOR1, 32 amino acids] |  | Positive | acted as an insulin-sensitizing agent | 
VVAGAFVHFHGVSNLQEFRFMIGGGCSEEDAL [R2 CTF32, C-terminal fragment of ADIPOR2, 32 amino acids] |  | Positive |  | 
R1 CTF32 R2 CTF32: SEQ ID NO:1 linked via a disulfide bond to SEQ ID NO:2 (disulfide I:26-II:26 (inferred)) chain 1: VVAAAFVHFYGVSNLQEFRYGLEGGCTDDTLL chain 2: VVAGAFVHFHGVSNLQEFRFMIGGGCSEEDAL |  | Positive |  | more active than the corresponding homodimers
R1 CTF32 R1 CTF32: SEQ ID NO:1 linked via a disulfide bond to SEQ ID NO:1 (disulfide I:26-II:26 (inferred)) chain 1: VVAAAFVHFYGVSNLQEFRYGLEGGCTDDTLL chain 2: VVAAAFVHFYGVSNLQEFRYGLEGGCTDDTLL |  | Positive |  | 
R2 CTF32 R2 CTF32: SEQ ID NO:2 linked via a disulfide bond to SEQ ID NO:2 (disulfide I:26-II:26 (inferred)) chain 1: VVAGAFVHFHGVSNLQEFRFMIGGGCSEEDAL chain 2: VVAGAFVHFHGVSNLQEFRFMIGGGCSEEDAL |  | Positive |  | 
